T1: Factor G β-subunit β2 (Limulus polyphemus)
T1 sequence: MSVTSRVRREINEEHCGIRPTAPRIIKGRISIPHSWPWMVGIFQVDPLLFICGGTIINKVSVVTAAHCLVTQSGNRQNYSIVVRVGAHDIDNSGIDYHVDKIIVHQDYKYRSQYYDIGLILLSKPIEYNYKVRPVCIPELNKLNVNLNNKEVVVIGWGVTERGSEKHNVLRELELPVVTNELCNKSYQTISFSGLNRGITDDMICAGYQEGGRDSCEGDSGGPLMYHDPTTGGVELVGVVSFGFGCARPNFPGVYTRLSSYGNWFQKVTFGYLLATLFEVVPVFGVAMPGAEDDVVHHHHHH

T2: Factor G β-subunit β5 (Limulus polyphemus)
T2 sequence: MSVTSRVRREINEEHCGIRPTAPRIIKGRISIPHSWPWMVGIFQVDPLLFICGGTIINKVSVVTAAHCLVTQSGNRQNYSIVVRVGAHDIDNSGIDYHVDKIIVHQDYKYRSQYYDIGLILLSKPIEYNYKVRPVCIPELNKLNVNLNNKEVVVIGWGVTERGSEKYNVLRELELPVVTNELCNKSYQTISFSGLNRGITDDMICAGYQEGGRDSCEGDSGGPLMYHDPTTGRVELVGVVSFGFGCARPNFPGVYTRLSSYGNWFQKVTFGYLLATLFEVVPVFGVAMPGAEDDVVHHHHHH

T3: Factor G β-subunit βC1 (Limulus polyphemus)
T3 sequence: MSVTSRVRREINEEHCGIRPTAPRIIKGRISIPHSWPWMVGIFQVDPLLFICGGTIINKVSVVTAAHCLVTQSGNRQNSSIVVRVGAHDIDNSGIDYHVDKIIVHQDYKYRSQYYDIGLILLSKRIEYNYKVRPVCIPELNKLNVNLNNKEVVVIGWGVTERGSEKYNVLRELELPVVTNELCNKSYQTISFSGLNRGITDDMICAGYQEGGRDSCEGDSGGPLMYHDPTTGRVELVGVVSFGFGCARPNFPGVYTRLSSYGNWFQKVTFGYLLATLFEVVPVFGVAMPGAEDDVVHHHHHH

T4: Factor G β-subunit βC2 (Limulus polyphemus)
T4 sequence: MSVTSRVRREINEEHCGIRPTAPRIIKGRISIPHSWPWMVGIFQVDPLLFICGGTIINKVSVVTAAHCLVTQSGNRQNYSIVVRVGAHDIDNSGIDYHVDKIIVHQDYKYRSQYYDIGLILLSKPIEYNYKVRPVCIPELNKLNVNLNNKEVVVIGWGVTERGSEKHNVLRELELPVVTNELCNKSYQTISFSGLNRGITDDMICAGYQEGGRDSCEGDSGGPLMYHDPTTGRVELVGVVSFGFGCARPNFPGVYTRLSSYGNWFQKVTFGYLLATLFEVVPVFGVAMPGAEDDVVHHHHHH

T5: Factor G β-subunit βi2 (Limulus polyphemus)
T5 sequence: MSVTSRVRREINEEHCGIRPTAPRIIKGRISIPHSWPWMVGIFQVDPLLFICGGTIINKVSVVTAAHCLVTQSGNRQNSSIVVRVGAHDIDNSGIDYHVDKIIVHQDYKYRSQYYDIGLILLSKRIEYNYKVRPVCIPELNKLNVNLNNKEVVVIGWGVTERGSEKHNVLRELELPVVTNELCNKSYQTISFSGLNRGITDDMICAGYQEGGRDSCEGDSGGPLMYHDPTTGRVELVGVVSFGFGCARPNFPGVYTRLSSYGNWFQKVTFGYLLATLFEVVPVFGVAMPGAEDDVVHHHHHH

T6: Factor G β-subunit βi3 (Limulus polyphemus)
T6 sequence: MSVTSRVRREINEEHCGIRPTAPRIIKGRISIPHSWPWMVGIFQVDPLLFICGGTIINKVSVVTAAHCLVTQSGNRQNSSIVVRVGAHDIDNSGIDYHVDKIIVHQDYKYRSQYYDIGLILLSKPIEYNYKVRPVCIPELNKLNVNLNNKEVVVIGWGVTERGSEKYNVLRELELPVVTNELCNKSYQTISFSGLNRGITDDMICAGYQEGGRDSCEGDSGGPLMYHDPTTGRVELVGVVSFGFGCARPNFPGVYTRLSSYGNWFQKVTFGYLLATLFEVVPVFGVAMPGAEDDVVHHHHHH

T7: Tachypleus Factor G β-subunit (Tachypleus (paragraph 383 prints 'Tachypleus polyphemus'; paragraph 8 prints Tachypleus tridentatus)) (UniProt Q27083)
T7 sequence (looked up): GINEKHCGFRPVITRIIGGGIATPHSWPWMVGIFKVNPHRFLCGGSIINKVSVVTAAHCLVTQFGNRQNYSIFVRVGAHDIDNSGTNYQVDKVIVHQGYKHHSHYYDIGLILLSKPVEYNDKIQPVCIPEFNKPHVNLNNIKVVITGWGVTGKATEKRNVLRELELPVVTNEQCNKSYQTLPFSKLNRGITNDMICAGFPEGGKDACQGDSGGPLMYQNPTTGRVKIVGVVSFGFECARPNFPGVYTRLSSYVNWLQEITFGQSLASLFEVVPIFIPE


Experiments:
Test in all cases: cell-based or functional assay
[1] = molecular target: T1, Factor G β-subunit β2 (Limulus polyphemus)
[2] = molecular target: T2, Factor G β-subunit β5 (Limulus polyphemus)
[3] = molecular target: T3, Factor G β-subunit βC1 (Limulus polyphemus)
[4] = molecular target: T4, Factor G β-subunit βC2 (Limulus polyphemus)
[5] = molecular target: T5, Factor G β-subunit βi2 (Limulus polyphemus)
[6] = molecular target: T6, Factor G β-subunit βi3 (Limulus polyphemus)
[7] = molecular target: T7, Tachypleus Factor G β-subunit (Tachypleus (paragraph 383 prints 'Tachypleus polyphemus'; paragraph 8 prints Tachypleus tridentatus))

Binder	glucan-dependent protease activity of the coexpressed product: blank difference in absorbance (405 nm / 492 nm) with vs without LNT; grade A >0.1, B <=0.1 and >0.01, C <=0.01 and >0, D =0 (absorbance difference) [1]	glucan-dependent protease activity of the coexpressed product: blank difference in absorbance (405 nm / 492 nm) with vs without LNT; grade A >0.1, B <=0.1 and >0.01, C <=0.01 and >0, D =0 (absorbance difference) [2]	glucan-dependent protease activity of the coexpressed product: blank difference in absorbance (405 nm / 492 nm) with vs without LNT; grade A >0.1, B <=0.1 and >0.01, C <=0.01 and >0, D =0 (absorbance difference) [3]	glucan-dependent protease activity of the coexpressed product: blank difference in absorbance (405 nm / 492 nm) with vs without LNT; grade A >0.1, B <=0.1 and >0.01, C <=0.01 and >0, D =0 (absorbance difference) [4]	glucan-dependent protease activity of the coexpressed product: blank difference in absorbance (405 nm / 492 nm) with vs without LNT; grade A >0.1, B <=0.1 and >0.01, C <=0.01 and >0, D =0 (absorbance difference) [5]	glucan-dependent protease activity of the coexpressed product: blank difference in absorbance (405 nm / 492 nm) with vs without LNT; grade A >0.1, B <=0.1 and >0.01, C <=0.01 and >0, D =0 (absorbance difference) [6]	glucan-dependent protease activity of the coexpressed product: blank difference in absorbance (405 nm / 492 nm) with vs without LNT; grade D = blank difference equal to 0 (legend given for Table 13) (absorbance difference) [7]
Factor G α-subunit (AB547712) derived from Limulus polyphemus (protein) SQEPKWKLVWSDEFTNGISSDWEFETGNGPNGWGNNELQYYRRENTRVEGGKLIITAKEEDYEGFRYTSAKLKTQFNKPWKDGKIEARMSIPSFRGVWVAFWMLGDITDTDSWPSSGEIDFEEHINTNNEVRGTIHWSTSDDADTLHGRGTNTDYHIYSVEWNSSVIRWFVDGNQYFDVNIQRGATGTNAFHNNVFVILNMAIGGNWPGFNVADEAFPANMYVDYVRVYQDANTPSPVDVTHLSGYYFLQNRHSELYLDVSGSSNEDGAFLQQWPYSGNANQQFDFVHLGNKVYKIINKNSGKSLDVYELGTDNGVRIQQWSYGGGYNQQFIVQDVGDGYYKIFARSTGKLVEVADLNKDPGGKIQQWSDDGQLSGQWKLIRNKANSKLIQAESYFASSKVQLEDTSDVGGGKNVKCDNEGAWMAYKDINFPSSGTYQVEYRVASERAGGMLSLDLNAGSIVLGMLNVPSTGGLQKWTTISHTVNVSSGTYNLGISVQRPGWNINWINITKVSSQLKSIPSTNSRVIQAESYFDSSKVQLEDTSDVGGGKNVKCDTKGAWMAYKDINFPSSGSYQIEYRVASERAGGKLSLDLNAGSIVLGMLDVPSTGGWQKWTTISHTVKVDSGTYNLGIYVQQPGWNINWIKITKV	0	0	0	0	0	0	
Factor G α-subunit A (protein) EPKWKLVWSDEFTNGISSDWEFETGNGPNGWGNNELQYYRRENTRVEGGKLIITAKEEDYEGFRYTSAKLKTQFNKPWKDGKIEARMSIPSFRGVWVAFWMLGDITDTDSWPSSGEIDFEEHINTNNEVRGTIHWSTSDDADTLHGRGTNTDYHIYSVEWNSSVIRWFVDGNQYFEVNIQRGATGTNAFHNNVFVILNMAIGGNWPGFNVADEAFPANMYVDYVRVYQDANTPSPVDVTHLSGYYFLQNRHSELYLDVSGSSNEDGAFLQQWPYSGNANQQFDFVHLGNKVYKIINKNSGKSLDVYELGTDNGVRIQQWSYGGGYNQQFIVQDVGDGYYKIFARSTGKLVEVADLNKDPGGKIQQWSDDGQLSGQWKLIRNKANSKLIQAESYFASSKVQLEDTSDVGGGKNVKCDNEGAWMAYKDINFPSSGTYQVEYRVASERAGGMLSLDLNAGSIVLGMLNVPSTGGLQKWTTISHTVNVSSGTYNLGISVQRPGWNINWINITKVSSQLKSIPSTNSRVIQAESYFDSSKVQLEDTSDVGGGKNVKCDTKGAWMAYKDINFPSSGSYQIEYRVASERAGGKLSLDLNAGSIVLGMLDVPSTGGWQKWTTISHTVKVDSGTYNLGIYVQQPGWNINWIKITKV	< 0.01	< 0.1	< 0.1	< 0.01	0.1	0.1	

Now from value to binder:

glucan-dependent protease activity of the coexpressed product: blank difference in absorbance (405 nm / 492 nm) with vs without LNT; grade A >0.1, B <=0.1 and >0.01, C <=0.01 and >0, D =0 (absorbance difference) [1]	glucan-dependent protease activity of the coexpressed product: blank difference in absorbance (405 nm / 492 nm) with vs without LNT; grade A >0.1, B <=0.1 and >0.01, C <=0.01 and >0, D =0 (absorbance difference) [2]	glucan-dependent protease activity of the coexpressed product: blank difference in absorbance (405 nm / 492 nm) with vs without LNT; grade A >0.1, B <=0.1 and >0.01, C <=0.01 and >0, D =0 (absorbance difference) [3]	glucan-dependent protease activity of the coexpressed product: blank difference in absorbance (405 nm / 492 nm) with vs without LNT; grade A >0.1, B <=0.1 and >0.01, C <=0.01 and >0, D =0 (absorbance difference) [4]	glucan-dependent protease activity of the coexpressed product: blank difference in absorbance (405 nm / 492 nm) with vs without LNT; grade A >0.1, B <=0.1 and >0.01, C <=0.01 and >0, D =0 (absorbance difference) [5]	glucan-dependent protease activity of the coexpressed product: blank difference in absorbance (405 nm / 492 nm) with vs without LNT; grade A >0.1, B <=0.1 and >0.01, C <=0.01 and >0, D =0 (absorbance difference) [6]	glucan-dependent protease activity of the coexpressed product: blank difference in absorbance (405 nm / 492 nm) with vs without LNT; grade D = blank difference equal to 0 (legend given for Table 13) (absorbance difference) [7]	Binder
0.1	0	0	< 0.1	0	< 0.01		Factor G α-subunit B (protein) TNWKLVWSDEFTNGISSDWEFETGNGPNGWGNNELQYYRRENARVEGGKLIITAKKEDYEGFRYTSAKLKTQFNKPWKDGKIEARMSIPSFRGVWVAFWMLGDITDTDSWPSSGEIDFKEHINTNNEVRGTIHWSTSDGAHTHHGRGTNTDYHIYSVEWNSSVIRWFVDGNQYFEVNIQRGATGTNAFHNKVFVILNMAIGGNWPGFNVADEAFPANMYVDYVRVYQDANTPSPVDVDVTDLSGYYFLQNRHSELYLDVSFSSNKDGAFLQQWPYNGNANQQFDFVHLGNNIYKITNKNSGKSLDVYNVGTENGVRIQQMPYRGSYNQQFIVQDVGDGYYKIFARNSRKLVEVADFNKDPGGKIQQWSDDGQISGQWKLIRNKVNSKVIQAESYFASLGVQLEDTSDVGGGKNVKCDTEGAWMAYKDINFPSSGSYQVEYRVASERAGGKLSLDLNAGSIVLGMLNVPSTGGWQKWTTISHTVKVDSGTYNLGIYVQRPRWNINWIKITEAPGQSKPIQRSDTDSKVIQAESYFASSKVQLEDTSDVGGGKNVKCDNEGAWMAYKDINFPSSGSYQIEYRVASERAGGKLSLDLNAGSIVLGMLDVPSTGGWQKWTTISHTVNVSSGTYNLGIYVQRAAWNINWIKITKV
						0	Tachypleus Factor G α-subunit (protein) SHEPKWQLVWSDEFTNGISSDWEFEMGNGLNGWGNNELQYYRRENAQVEGGKLVITAKREDYDGFKYTSARLKTQFDKSWKYGKIEAKMAIPSFRGVWVMFWMSGDNTNYVRWPSSGEIDFIEHRNTNNEKVRGTIHWSTPDGAHAHHNRESNTNGIDYHIYSVEWNSSIVKWFVNGNQYFEVKIQGGVNGKSAFRNKVFVILNMAIGGNWPGFDVADEAFPAKMYIDYVRVYQDASTSSPVGDTSLDGYYFVQNRHSELYLDVTDASNEDGAFLQQWSYSGNENQQFDFEHLENNVYKITNKKSGKSLDVYNFGTENGVRIQQWSYGGARNQQFTVQSVGDGYYKIIPRGSGKLVEVADFSKDAGGKIQQWSDNNQLSGQWKLIKSKSYSKLIQAESYFDSSKVQLEDTSDVGGGKNVKCDNEGAWMAYKDIDFPSSGNYRIEYRVASERAGGKLSLDLNAGSIVLGMLDVPSTGGWQKWTTISHTVNVDSGTYNLGIYVQRASWNINWIKITKIPEQSNLNQGRRNSKLIQAESYFSYSEVQLEDTLDVGGGKNVKCDKEGAWMAYKDIDFPSSGSYRVEYRVASERAGGKLSLDLNAGSIVLGMLDIPSTGGLQKWTTISHIVNVDLGTYNLGIYVQKASWNINWIRITKV
